According to publication PMC10251306:

Substrate: O=P(O)(O)OC[C@H]1O[C@H](OP(=O)(O)O)[C@H](O)[C@@H](O)[C@@H]1O
Experiment: phosphatase activity, BioMol Green phosphate assay
Assay type: biochemical, Homo sapiens
Details: without IMP, 100 mM Hepes pH 7.2, 2 mM MgCl2, 2 mM β-mercaptoethanol

B1: PMM1 (α-PMM1) (Homo sapiens) (protein)
chain: MAVTAQAARRKERVLCLFDVDGTLTPARQKIDPEVAAFLQKLRSRVQIGVVGGSDYCKIAEQLGDGDEVIEKFDYVFAENGTVQYKHGRLLSKQTIQNHLGEELLQDLINFCLSYMALLRLPKKRGTFIEFRNGMLNISPIGRSCTLEERIEFSELDKKEKIREKFVEALKTEFAGKGLRFSRGGMISFDVFPEGWDKRYCLDSLDQDSFDTIHFFGNETSPGGNDFEIFADPRTVGHSVVSPQDTVQRCREIFFPETAHEA
Protein B1 has a Km of 18 ± 3.4 µM, a kcat of 0.018 ± 0.0012 s⁻¹ and a kcat/Km of 1000 M⁻¹ s⁻¹.
